Reference: publication PMC6026032 (Brain research, 2018)

B1: HA-tagged Cbln4 (wild type) (ligand, mouse, UniProt Q8BME9 25-198, looked up)
chain: QNDTEPIVLEGKCLVVCDSNPATDSKGSSSSPLGISVRAANSKVAFSAVRSTNHEPSEMSNKTRIIYFDQILVNVGNFFTLESVFVAPRKGIYSFSFHVIKVYQSQTIQVNLMLNGKPVISAFAGDKDVTREAATNGVLLYLDKEDKVYLKLEKGNLLGGWQYSTFSGFLVFPL
modifications: N-linked glycans at N26 and N85; sialylated
B2: HA-tagged Cbln4 N85Q (ligand, mouse, UniProt Q8BME9 25-198, looked up)
chain: QNDTEPIVLEGKCLVVCDSNPATDSKGSSSSPLGISVRAANSKVAFSAVRSTNHEPSEMSQKTRIIYFDQILVNVGNFFTLESVFVAPRKGIYSFSFHVIKVYQSQTIQVNLMLNGKPVISAFAGDKDVTREAATNGVLLYLDKEDKVYLKLEKGNLLGGWQYSTFSGFLVFPL
modifications: N-linked glycan at N26 only (monoglycosylated)
B3: HA-tagged Cbln1 (wild type) (ligand, mouse, UniProt Q9R171 22-193, looked up)
chain: QNETEPIVLEGKCLVVCDSNPTSDPTGTALGISVRSGSAKVAFSAIRSTNHEPSEMSNRTMIIYFDQVLVNIGNNFDSERSTFIAPRKGIYSFNFHVVKVYNRQTIQVSLMLNGWPVISAFAGDQDVTREAASNGVLIQMEKGDRAYLKLERGNLMGGWKYSTFSGFLVFPL
modifications: N-linked glycans at N23 and N79; sialylated
B4: HA-tagged Cbln1 N23Q (ligand, mouse, UniProt Q9R171 22-193, looked up)
chain: QQETEPIVLEGKCLVVCDSNPTSDPTGTALGISVRSGSAKVAFSAIRSTNHEPSEMSNRTMIIYFDQVLVNIGNNFDSERSTFIAPRKGIYSFNFHVVKVYNRQTIQVSLMLNGWPVISAFAGDQDVTREAASNGVLIQMEKGDRAYLKLERGNLMGGWKYSTFSGFLVFPL
modifications: N-linked glycan at N79 only (monoglycosylated)
B5: HA-tagged Cbln1 N79Q (ligand, mouse, UniProt Q9R171 22-193, looked up)
chain: QNETEPIVLEGKCLVVCDSNPTSDPTGTALGISVRSGSAKVAFSAIRSTNHEPSEMSQRTMIIYFDQVLVNIGNNFDSERSTFIAPRKGIYSFNFHVVKVYNRQTIQVSLMLNGWPVISAFAGDQDVTREAASNGVLIQMEKGDRAYLKLERGNLMGGWKYSTFSGFLVFPL
modifications: N-linked glycan at N23 only (monoglycosylated)
B6: HA-tagged Cbln2 (wild type) (ligand, mouse, UniProt Q8BGU2 52-224, looked up)
chain: QNDTEPIVLEGKCLVVCDSSPSGDGAVTSSLGISVRSGSAKVAFSATRSTNHEPSEMSNRTMTIYFDQVLVNIGNHFDLASSIFVAPRKGIYSFSFHVVKVYNRQTIQVSLMQNGYPVISAFAGDQDVTREAASNGVLLLMEREDKVHLKLERGNLMGGWKYSTFSGFLVFPL
modifications: N-linked glycans at N53 and N110
B7: HA-tagged Cbln2 N53Q (ligand, mouse, UniProt Q8BGU2 52-224, looked up)
chain: QQDTEPIVLEGKCLVVCDSSPSGDGAVTSSLGISVRSGSAKVAFSATRSTNHEPSEMSNRTMTIYFDQVLVNIGNHFDLASSIFVAPRKGIYSFSFHVVKVYNRQTIQVSLMQNGYPVISAFAGDQDVTREAASNGVLLLMEREDKVHLKLERGNLMGGWKYSTFSGFLVFPL
modifications: N-linked glycan at N110 only (monoglycosylated)
B8: HA-tagged Cbln2 N110Q (ligand, mouse, UniProt Q8BGU2 52-224, looked up)
chain: QNDTEPIVLEGKCLVVCDSSPSGDGAVTSSLGISVRSGSAKVAFSATRSTNHEPSEMSQRTMTIYFDQVLVNIGNHFDLASSIFVAPRKGIYSFSFHVVKVYNRQTIQVSLMQNGYPVISAFAGDQDVTREAASNGVLLLMEREDKVHLKLERGNLMGGWKYSTFSGFLVFPL
modifications: N-linked glycan at N53 only (monoglycosylated)

Molecular target: the molecule itself
Assay: native gel or EMSA

Stoichiometry N, 6:
B1, B2, B3, B4, B5, B6, B7, B8
